This note sets out measurements from paper PMC3504746.

The assay concerns the target skeletal muscle ryanodine receptor (RyR1) purified from sheep skeletal muscle, homotetramer (sheep (endogenous in skeletal muscle)). The assay can be described thus: negative-stain TEM.

Consider “skeletal muscle ryanodine receptor (RyR1) purified from sheep skeletal muscle, homotetramer”, for which the stoichiometry N (in general, a count of units in the complex or per binding partner) was determined as 4.
